Experimental findings from doi:10.1101/2023.06.07.543977 are described below.

The data set deals with T1, mKu (mycobacterial Ku) (Mycobacterium tuberculosis, UniProt P9WKD9 1-273).
T1 sequence: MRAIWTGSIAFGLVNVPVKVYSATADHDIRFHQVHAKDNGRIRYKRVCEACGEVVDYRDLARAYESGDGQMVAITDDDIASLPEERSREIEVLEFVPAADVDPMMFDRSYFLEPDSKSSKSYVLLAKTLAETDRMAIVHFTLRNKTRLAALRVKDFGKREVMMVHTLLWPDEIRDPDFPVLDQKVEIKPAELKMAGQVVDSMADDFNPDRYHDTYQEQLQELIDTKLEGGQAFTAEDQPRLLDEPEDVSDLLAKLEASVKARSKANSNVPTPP
Put plainly: SPR. For orientation: In SPR one partner is held on a chip, and binding of the other changes the refractive index at the surface.

B1: 29 bp dsDNA (dsDNA)
DNA 1: CGAACCAGCTGGCGCATAGCCGCGCTATC
DNA 2: GATAGCGCGGCTATGCGCCAGCTGGTTCG
As for B1, the “apparent K (half saturation)” value is 17.9 ± 4.58 nM.

B2: 20 bp dsDNA (dsDNA)
DNA 1: GTCGTAGCCCACCTGACCGT
DNA 2: ACGGTCAGGTGGGCTACGAC
Consider B2, for which the “apparent K (half saturation)” value came out at 10.8 ± 2.47 nM.
